Assay [1] concerns the target 16055 gp120 (HIV-1 16055 (subtype C)).
The target in assay [2] is 16055 SOSIP.663 trimer, negatively selected (flow-through of the GE136 column) (HIV-1 16055 (subtype C)). As to the kind of experiment: negative-stain EM, stoichiometry from micrographs.
Assay [3] has as its target JRFL SOSIP.663 trimer, negatively selected (flow-through of the F105 column) (HIV-1 JRFL (subtype B)) (UniProt P20871). As to the kind of experiment: negative-stain EM, stoichiometry from micrographs.
In assay [4] the target is 16055 SOSIP (HIV-1 16055 (subtype C)). Kind of assay: ITC. The note with it: Fab.
Assay [5] concerns the target 16055 SOSIP.663 trimer, negatively selected (flow-through of the GE136 column) (HIV-1 16055 (subtype C)). Kind of assay: negative-stain EM, 2D class averages.
Assay [6] has as its target JRFL SOSIP.663 trimer, negatively selected (flow-through of the F105 column) (HIV-1 JRFL (subtype B)) (UniProt P20871). As to the kind of experiment: negative-stain EM, 2D class averages.

For orientation: Kd means the equilibrium constant for the complex coming apart.

In assay [1], F105 returned a dissociation constant (Kd) of 30.2 nM.

In assay [2], PGT151 Fab showed a percent of trimers with one Fab bound of 34%, a percent of trimers with three Fabs bound of 0% and a percent of trimers with two Fabs bound of 20%. In assay [3], this substance gave a percent of trimers with one Fab bound of 28%, a percent of trimers with three Fabs bound of 11% and a percent of trimers with two Fabs bound of 36%.

Turning to VRC01 Fab, the Kd in assay [4] amounted to 97 nM. In other words, the double-digit nanomolar range.

19b Fab: the percent of trimers with one Fab bound amounted to 22% in assay [5] and 25% in assay [6].

These data come from patent US20170035877A1.
